Measured values as given in US12702694B2, “Methods for identification, assessment, prevention, and treatment of metabolic disorders using SLIT2” (Dana-Farber Cancer Institute, Inc., priority 2015, dated 2026).

System: diet-induced obese (DIO) mice
Experiment: Adipose gene and UCP1 protein expression after adenovirus injection in diet-induced obese (DIO) mice
Assay type: in vivo, Mus musculus
Experimental: All animal experiments were approved by the Institutional Animal Care and Use Committee of the Beth Israel Deaconess Medical Center. Mice (Mus musculus) were obtained from Jackson Laboratories, maintained in 12 hour light-lark cycles (6 a.m.-6 p.m.) at 22° C., and fed a standard irradiated rodent chow diet or a high-fat diet (60% fat) for 12-20 weeks. AAV-8 viruses (Penn Vector Core) and adenoviruses (Vector Biolabs or constructed in-house) were injected at a titer of 10^11 or 10^10 per mouse, respectively. All experiments were done with male mice. The aP2-PRDM16 transgenic mice have been previously described in Seale et al. (2011) J. Clin. Invest. 121:96-105. PRDM16-floxed mice were crossed with adiponectin-Cre and were maintained on a pure C57BL/6 background (Cohen et al. (2014) Cell 156:304-316). The Slit2-floxed mice have been described previously in Rama et al. (2015) Nat. Med. 21:483-491. Lean C57BL/6 mice were obtained from Jackson Laboratories and were […].
RNA was extracted from cultured cells or frozen tissue samples using TRIzol®, purified with QIAGEN RNeasy® minicolumns. Normalized RNA was reversed transcribed using a high-capacity cDNA reverse transcription lot (Applied Biosystems) and cDNA was analyzed by qRT-CPR. Relative mRNA levels were calculated using the comparative CT method and normalized to cyclophilin […]. All primers used are listed with their sequences in Table 3 as follows: […]
For Western blotting, homogenized tissues, whole cell lysates, or concentrated serum free conditioned medium were lysed in RIPA buffer containing protease inhibitor cocktail (Thermo Scientific) and phosphatase inhibitor cocktail (Thermo Scientific), separated by SDS-PAGE and transferred to Immobilon-P® membranes (Millipore). For Western blotting of plasma samples, 1 μl of plasma was prepared containing 2× sample buffer (Invitrogen) with reducing agent, boiled and analyzed using Western blot against V5, FLAG, or the indicated antibody. V5-antibody was from Life Technologies and anti-Flag M2-HRP (A8592) from Sigma Aldrich. Anti-Slit2 antibody used was from Abcam (Abcam ab134166). Phospho-PKA Substrate, phospho-PKC Substrate, phospho-ERK1/2, total ERK, phospho-AKT, total AKT, phospho-AMPK, total AMPK, phospho-ATGL, ATGL, phospho-EGFR and EGFR were from Cell Signaling. Protein array was from R&D Systems (Proteome Profiler Mouse Phospho-RTK Array Kit, ARY014). Silverstain (SilverQuest™ Silver Staining Kit, LC6070) was purchased from Thermo Fisher.

B1: Slit2-C: ~50 kDa C-terminal cleavage fragment of Slit2 beginning at TSP (SEQ ID NO: 22); adenovirally expressed or purified FLAG-tagged protein (protein, listed as Homo sapiens)
chain: TSPCDNFDCQNGAQCIIRINEPICQCLPGYLGEKCEKLVSVNFVNKESYLQIPSAKVRPQTNITLQIATDEDSGILLYKGDKDHIAVELYRGRVRASYDTGSHPASAIYSVETINDGNFHIVELLTLDSSLSLSVDGGSPKVITNLSKQSTLNFDSPLYVGGMPGKNNVASLRQAPGQNGTSFHGCIRNLYINSELQDFRKMPMQTGILPGCEPCHKKVCAHGMCQPSSQSGFTCECEEGWMGPLCDQRTNDPCLGNKCVHGTCLPINAFSYSCKCLEGHGGVLCDEEEDLFNPCQMIKCKHGKCRLSGVGQPYCECNSGFTGDSCDREISCRGERIRDYYQKQQGYAACQTTKKVSRLECRGGCAGGQCCGPLRSKRRKYSFECTDGSSFVDEVEKVVKCGCARCAS
modifications: FLAG tag
notes: adenovirally expressed or purified FLAG-tagged protein
16-week DIO mice, 7 days post-injection, FIGS. 7A-7B
  Fas in inguinal and brown fat: reduction
16-week DIO mice, FIGS. 7A-7B
  Hsl and Atgl expression: unchanged
FIG. 7C
  Resistin in brown fat: unchanged
  brown fat levels of Leptin: marked reduction
Western blot quantification relative tubulin, DIO mice 7 days post-injection, FIG. 7D
  induction of Ucp1 protein expression in BAT: 1.3 fold
